The target in one test is human IL-6 (human) (UniProt P05231). Description: cell-based or functional assay.
The target of test [1] is IL-6R expressed on HEK-Blue IL-6 reporter cells (UniProt P08887). Description: cell-based or functional assay.
UniProt P08887, sequence (P08887 20-468 limits assumed): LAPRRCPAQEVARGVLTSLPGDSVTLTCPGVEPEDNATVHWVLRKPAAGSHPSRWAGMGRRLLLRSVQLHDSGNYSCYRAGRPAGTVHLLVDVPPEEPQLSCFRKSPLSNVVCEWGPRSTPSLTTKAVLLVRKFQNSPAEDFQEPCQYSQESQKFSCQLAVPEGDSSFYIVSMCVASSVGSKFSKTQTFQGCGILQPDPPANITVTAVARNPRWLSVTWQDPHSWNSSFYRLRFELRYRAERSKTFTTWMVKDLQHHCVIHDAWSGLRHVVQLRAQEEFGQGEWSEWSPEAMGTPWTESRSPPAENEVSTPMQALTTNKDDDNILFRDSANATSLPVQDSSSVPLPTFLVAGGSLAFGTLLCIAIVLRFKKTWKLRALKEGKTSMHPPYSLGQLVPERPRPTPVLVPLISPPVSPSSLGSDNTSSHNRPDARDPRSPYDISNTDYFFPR

UniProt P05231, sequence (P05231 30-212 limits assumed): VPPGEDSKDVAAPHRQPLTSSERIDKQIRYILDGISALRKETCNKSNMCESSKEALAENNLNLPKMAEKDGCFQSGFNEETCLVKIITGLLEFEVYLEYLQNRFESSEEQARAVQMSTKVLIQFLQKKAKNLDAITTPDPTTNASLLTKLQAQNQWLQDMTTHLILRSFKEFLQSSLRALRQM

B1: scFv antibody derived from reference Antibody 3 (binding to IL-6), fused with an Fc fragment of human IgG1 (Fc fusion, not shown: a dimerising Fc or GST)
scFv: QIVLIQSPAIMSASPGEKVTMTCSASSSVSYMYWYQQKPGSSPRLLIYDTSNLASGVPVRFSGSGSGTSYSLTISRMEAEDAATYYCQQWSGYPYTFGGGTKLEIKGGGGSGGGGSGGGGSEVQLVESGGKLLKPGGSLKLSCAASGFTFSSFAMSWFRQSPEKRLEWVAEISSGGSYTYYPDTVTGRFTISRDNAKNTLYLEMSSLRSEDTAMYYCARGLWGYYALDYWGQGTSVTVSS
B1 came in with an inhibition of IL-6 signaling (SEAP production by HEK-Blue IL-6 reporter cells, 2 ng/ml human IL-6) with human IL-6 (human) of less than 60%.

B2: scFv antibody derived from reference Antibody 2 (binding to IL-6), fused with an Fc fragment of human IgG1 (Fc fusion, not shown: a dimerising Fc or GST)
scFv: EIVLTQSPATLSLSPGERATLSCSASISVSYMYWYQQKPGQAPRLLIYDMSNLASGIPARFSGSGSGTDFTLTISSLEPEDFAVYYCMQWSGYPYTFGGGTKVEIKGGGGSGGGGSGGGGSEVQLVESGGGLVQPGGSLRLSCAASGFTFSPFAMSWVRQAPGKGLEWVAKISPGGSWTYYSDTVTGRFTISRDNAKNSLYLQMNSLRAEDTAVYYCARQLWGYYALDIWGQGTTVTVSS
For the molecule B2, the inhibition of IL-6 signaling (SEAP production by HEK-Blue IL-6 reporter cells, 2 ng/ml human IL-6) with human IL-6 (human) was found to be 100%.

B3: scFv antibody derived from reference Antibody 4 (binding to IL-6R), fused with an Fc fragment of human IgG1 (Fc fusion, not shown: a dimerising Fc or GST)
scFv: QVQLQESGPGLVRPSQTLSLTCTVSGYSITSDHAWSWVRQPPGRGLEWIGYISYSGITTYNPSLKSRVTMLRDTSKNQFSLRLSSVTAADTAVYYCARSLARTTAMDYWGQGSLVTVSSGGGGSGGRASGGGGSGGGGSDIQMTQSPSSLSASVGDRVTITCRASQDISSYLNWYQQKPGKAPKLLIYYTSRLHSGVPSRFSGSGSGTDFTFTISSLQPEDIATYYCQQGNTLPYTFGQGTKVEIK
On to B3, for which the inhibition of IL-6 signaling (SEAP production by HEK-Blue IL-6 reporter cells, 2 ng/ml human IL-6) in test [1] was less than 60%.

B4: scFv antibody derived from reference Antibody 1 (binding to IL-6R), fused with an Fc fragment of human IgG1 (Fc fusion, not shown: a dimerising Fc or GST)
scFv: DIQMTQSPSSVSASVGDRVTITCRASQGISSWLAWYQQKPGKAPKLLIYGASSLESGVPSRFSGSGSGTDFTLTISSLQPEDFASYYCQQANSFPYTFGQGTKLEIKGGGGSGGGGSGGGGSEVQLVESGGGLVQPGRSLRLSCAASRFTFDDYAMHWVRQAPGKGLEWVSGISWNSGRIGYADSVKGRFTISRDNAENSLFLQMNGLRAEDTALYYCAKGRDSFDIWGQGTMVTVSS
In test [1], B4 came in with an inhibition of IL-6 signaling (SEAP production by HEK-Blue IL-6 reporter cells, 2 ng/ml human IL-6) of 100%.

Values taken from patent US20220096548A1.
